Laboratory results taken from patent publication US20130058921A1 (published 2013).

Target: CS1 (human, UniProt Q9NQ25 23-335)
Assay: cell-based or functional assay

B1: elotuzumab (antibody, V domains shown)
VH: EVQLVESGGGLVQPGGSLRLSCAASGFDFSRYWMSWVRQAPGKGLEWIGEINPDSSTINYAPSLKDKFIISRDNAKNSLYLQMNSLRAEDTAVYYCARPDGNYWYFDVWGQGTLVTVSS
VL: DIQMTQSPSSLSASVGDRVTITCKASQDVGIAVAWYQQKPGKVPKLLIYWASTRHTGVPDRFSGSGSGTDFTLTISSLQPEDVATYYCQQYSSYPYTFGQGTKVEIK
expanded autologous NK cell-mediated killing of multiple myeloma cells (51Cr release assay): ≥ 1.7 fold
